This note sets out measurements from article doi:10.1101/2020.09.30.318261 (bioRxiv, 2020).

As usually defined, the stoichiometry N is the number of molecules, sites or subunits per partner or assembly.

In this assay the target is SARS-CoV prefusion stabilised spike ectodomain trimer (SARS-CoV Urbani, stabilised). Kind of assay: cryo-EM structure.

B1: 47D11 Fab fragment (Fab, V domains shown)
VH: QVQLQESGPGLVKPSETLSLTCSVSGGSISSHYWSWIRQPPGKGLEWIGYIYYSGSTNHNPSLKSRVTISVDTSKNQFSLKLSSVTAADTAVYYCARGVLLWFGEPIFEIWGQGTMVTVSS
VL: EIVMTQSPATLSVSPGERATLSCRASQSVSSSLAWYQQKPGQAPRLLIYGASTRAPGIPARFSGSGSGTEFTLTISSLQSEDFAVYYCQQYNNWPLTFGGGTKVEI
In the case of B1, the “stoichiometry N” value was 3 Fab per spike trimer.
